Results taken from publication doi:10.1101/2021.09.29.462438.

Target: N-terminal soluble domain of Bacteroides fragilis FeoAB fusion protein (BfNFeoAB) (Bacteroides fragilis)
Experiment: SEC

- stoichiometry N: 3
Substance: N-terminal soluble domain of Bacteroides fragilis FeoAB fusion protein (BfNFeoAB) (domain or fragment)
